Positions count from the first letter of the chain named.
T1: CD46 on the surface of human cells (HeLa, Raji, PBMC and others) (human, UniProt P15529 35-376)
T1 sequence: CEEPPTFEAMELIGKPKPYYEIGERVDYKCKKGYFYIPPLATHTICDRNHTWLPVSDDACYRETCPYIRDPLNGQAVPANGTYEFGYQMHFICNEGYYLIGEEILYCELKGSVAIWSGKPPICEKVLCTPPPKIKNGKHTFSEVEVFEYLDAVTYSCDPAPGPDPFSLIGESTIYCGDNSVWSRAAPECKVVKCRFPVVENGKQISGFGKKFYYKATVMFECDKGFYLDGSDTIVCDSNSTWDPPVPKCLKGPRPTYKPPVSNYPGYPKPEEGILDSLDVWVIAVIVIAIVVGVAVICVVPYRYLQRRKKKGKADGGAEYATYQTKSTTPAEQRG

T2: soluble recombinant CD46 (sCD46) (human, UniProt P15529 35-343)
T2 construct: Soluble form produced as described in Wang et al. 2007; also called soluble CD46
T2 sequence: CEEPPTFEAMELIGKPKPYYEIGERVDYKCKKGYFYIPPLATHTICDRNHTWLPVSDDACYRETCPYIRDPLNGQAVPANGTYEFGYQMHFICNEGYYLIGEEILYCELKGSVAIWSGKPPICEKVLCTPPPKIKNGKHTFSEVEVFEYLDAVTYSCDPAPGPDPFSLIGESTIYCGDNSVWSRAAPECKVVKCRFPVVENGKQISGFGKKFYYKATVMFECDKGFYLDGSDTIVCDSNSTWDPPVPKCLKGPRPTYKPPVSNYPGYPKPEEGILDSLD

B1: wild-type Ad35 fiber knob protein (other)
chain: HHHHHHGDICIKDSINTLWTGINPPPNCQIVENTNTNDGKLTLVLVKNGGLVNGYVSLVGVSDTVNQMFTQKTANIQLRLYFDSSGNLLTDESDLKIPLKNKSSTATSETVASSKAFMPSTTAYPFNTTTRDSENYIHGICYYMTSYDRSLFPLNISIMLNSRMISSNVAYAIQFEWNLNASESPESNIATLTTSPFFFSYITEDDN
notes: Recombinant, made in E. coli, homotrimer; Biotinylated (EZ-Link Sulfo-NHS-LC-Biotin) for SPR; also called Ad35K; wild-type Ad35K
B2: mutant Ad35 fiber knob protein with Asp207Gly and Thr245Ala substitutions (Ad35K++) (other)
chain: B1 chain with D91G, T129A
notes: Recombinant, E. coli, spontaneously forms trimers; Biotinylated for SPR; also called Asp207Gly + Thr245Ala; Ad35K++ polypeptide

Key:
[1] = molecular target: soluble recombinant CD46 (sCD46) (human) (UniProt P15529); assay: SPR, ratio of KDs
[2] = molecular target: soluble recombinant CD46 (sCD46) (human) (UniProt P15529); assay: SPR, Biacore T100; biotinylated knob on streptavidin chip, sCD46 injected
[3] = molecular target: CD46 on the surface of human cells (HeLa, Raji, PBMC and others) (human) (UniProt P15529); assay: cell-based or functional assay
[4] = molecular target: T1, CD46 on the surface of human cells …; assay: cell-based or functional assay
[5] = molecular target: T2, soluble recombinant CD46 (sCD46); assay: SPR, Biacore T100; biotinylated knob on streptavidin chip, sCD46 injected
[6] = molecular target: T2, soluble recombinant CD46 (sCD46); assay: SPR, ratio of KDs

Row | Molecule | fold higher affinity than the wild-type fiber knob protein [1] [fold] | Kd [2] [nM] | koff [2] [s⁻¹] | kon [2] [M⁻¹ s⁻¹] | other results
1 | Ad35 fiber knob mutant Asp207Gly | 8.3 | 1.77 | 0.0034 | 3.51e+06 | 
2 | Ad35 fiber knob mutant Asn217Asp + Thr245Pro + Ile256Leu |  | 4.82 | 0.0097 | 2.25e+06 | 
3 | Ad35 fiber knob mutant Thr245Ala | 1.9 | 7.64 | 0.0173 | 2.25e+06 | 
4 | Ad35 fiber knob mutant Asp207Gly + Thr245Ala + Ile256Leu |  | 0.92 | 0.0018 | 1.96e+06 | 
5 | mouse anti-human CD46 antibody, clone MEM-258 (AbD Serotec) |  |  |  |  | level of CD46 on the surface of HeLa cells (flow cytometry), decline [3]: 30%; viability of Raji cells with NHS (alone or with daclizumab), decline [3]: 30%
6 | Ad35 fiber knob mutant Asp207Gly + Thr226Ala |  | 1.41 | 0.0026 | 1.97e+06 | 
7 | Ad35 fiber knob mutant Ile256Leu | 1.3 | 11 | 0.0236 | 2.13e+06 | 
8 | B1 |  |  |  |  | killing of Raji cells by rituximab/NHS, increase against rituximab/NHS only [4]: ~2 fold; Kd [5]: 14.6 nM; koff [5]: 0.0234 s⁻¹; kon [5]: 1.52e+06 M⁻¹ s⁻¹
9 | B2 |  |  |  |  | fold higher affinity than the wild-type Ad35 [6]: 23.2 fold; decrease of mean CD46 fluorescence intensity on PBMCs [4]: 1.97 fold; decrease of mean CD46 fluorescence intensity on Raji cells [4]: 7.54 fold; fold decrease in GFP expression after Ad35-GFP infection of HeLa cells pre-incubated 72 hours earlier, against Ad35K-279 [4]: 1000 fold; killing of Raji cells by rituximab/NHS, increase against rituximab/NHS only [4]: ~10 fold; Kd [5]: 0.63 nM; koff [5]: 0.0017 s⁻¹; kon [5]: 2.48e+06 M⁻¹ s⁻¹

— patent publication US20100255011A1 (University of Washington, published 2010)
